The values that follow come from patent US20230190951A1, “CONJUGATES OF ANTIBODIES AN IMMUNE CELL ENGAGERS” (SYNAFFIX B.V., priority 2020, published 2023).

For data set [1] the following is noted: cited from earlier work.
For data set [2] the following is noted: single-arm trial, all patients treated; cited from earlier work.
For a further data set, the target named is FcRn receptor (Homo sapiens, UniProt P55899). Put plainly: FcRn binding analysis by Biacore (steady state). The conditions noted are these: pH 6.0, PBS with 0.05% tween-20. The procedure:
Binding to the FcRn receptor was determined at pH 7.4 and pH 6.0 using a Biacore T200 (serial no. 1909913) using single-cycle kinetics and running Biacore T200 Evaluation Software V 2.0.1. A CM5 chip was coupled with FcRn in sodium acetate pH 5.5 using standard amine chemistry. Serial dilution of bispecifics and controls were measured in PBS pH 7.4 with 0.05% tween-20 (9 points; 2-fold dilution series; 8000 nM Top conc.) and in PBS pH 6.0 with 0.05% tween-20 (3 points; 2-fold dilution series; 4000 nM Top conc.). A flow rate of 30 µl/min was used and an association time of 40 seconds and dissociation time of 75 seconds. Steady state analysis was used to analyze samples.
On the technique in general: Surface plasmon resonance follows binding to a sensor surface in real time, without labels.

The target of a further data set is T1, CD3 (Homo sapiens, UniProt P07766).
T1 construct: Jurkat E6.1 cells, which express CD3 on the cell surface; endogenous in cells; host or cells: Jurkat E6.1
T1 sequence (P07766 23-207): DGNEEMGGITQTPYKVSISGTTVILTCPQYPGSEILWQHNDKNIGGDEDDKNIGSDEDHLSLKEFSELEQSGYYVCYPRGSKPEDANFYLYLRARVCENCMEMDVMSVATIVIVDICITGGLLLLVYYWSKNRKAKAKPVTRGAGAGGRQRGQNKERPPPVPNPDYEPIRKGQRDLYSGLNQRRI
T1 sequence (P04234 22-171 partner): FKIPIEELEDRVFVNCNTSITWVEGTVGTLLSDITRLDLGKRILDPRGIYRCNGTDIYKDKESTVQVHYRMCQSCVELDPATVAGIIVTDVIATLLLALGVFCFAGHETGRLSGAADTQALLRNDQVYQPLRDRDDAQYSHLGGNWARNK
T1 sequence (P09693 23-182 partner): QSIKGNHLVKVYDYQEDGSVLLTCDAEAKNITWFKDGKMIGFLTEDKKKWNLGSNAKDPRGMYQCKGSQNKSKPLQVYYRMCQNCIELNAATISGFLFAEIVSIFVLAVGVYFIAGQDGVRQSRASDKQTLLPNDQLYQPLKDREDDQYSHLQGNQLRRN
T1 sequence (P20963 22-164 partner): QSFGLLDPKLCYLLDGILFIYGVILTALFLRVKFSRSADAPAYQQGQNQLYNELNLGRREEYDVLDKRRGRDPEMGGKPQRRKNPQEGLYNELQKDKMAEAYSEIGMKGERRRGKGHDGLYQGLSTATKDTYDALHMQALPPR
Put plainly: CD3 binding analysis by FACS on CD3-positive Jurkat E6.1 cells. The conditions noted are these: for median fluorescence intensity: Jurkat E6.1 (CD3-positive), median of duplicate. The procedure:
(§1) Both cell lines were cultured in RPMI 1640 supplemented with 1% pen/strep and 10% fetal bovine serum at a concentration of 2 x 10^5 to 1 x 10^6 cells/ml. Cells were washed in fresh medium before the experiment and 100,000 cells per well were seeded in a 96-wells plate (duplicate wells). The dilution series of 6 antibodies were made in phosphate-buffered saline (PBS). The antibodies were diluted 10 times in the cell suspension and incubated at 4° C. in the dark for 30 minutes. After incubation, the cells were washed twice in cold PBS / 0.5% BSA, and incubated with anti-HIS-PE (only for 200) or anti-IgG1-PE (for all other compounds) at 4° C., in the dark for 30 minutes. After the second incubation step, the cells were washed twice. 7AAD was added as a live-dead staining. Detection of the fluorescence in the Yellow-B channel (anti-IgG1-PE and anti-HIS-PE) and the Red-B channel (7AAD) was done with the Guava 5HT flow cytometer. Median fluorescence intensity in the Yellow-B channel (anti-IgG1-PE and anti-HIS-PE) in life cells was determined with Kaluza software.
(Flow cytometry measures light scatter and fluorescence of single cells or particles in a stream.)

Another data set has as its system MOLT-4 cells. Put plainly: CD3 binding analysis by FACS on CD3 negative MOLT-4 cells. The conditions noted are these: MOLT-4 (CD3 negative). On the procedure:
as §1

Chain of FcRn receptor (P55899 24-297 limits assumed): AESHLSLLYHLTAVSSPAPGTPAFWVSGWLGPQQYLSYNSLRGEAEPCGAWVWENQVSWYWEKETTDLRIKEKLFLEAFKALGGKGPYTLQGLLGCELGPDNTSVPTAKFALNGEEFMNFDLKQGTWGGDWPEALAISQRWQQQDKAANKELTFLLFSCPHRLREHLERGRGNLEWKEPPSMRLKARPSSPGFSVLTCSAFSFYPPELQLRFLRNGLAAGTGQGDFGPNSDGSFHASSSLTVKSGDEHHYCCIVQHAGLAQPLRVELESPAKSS
Chain of FcRn receptor (P61769 21-119 partner): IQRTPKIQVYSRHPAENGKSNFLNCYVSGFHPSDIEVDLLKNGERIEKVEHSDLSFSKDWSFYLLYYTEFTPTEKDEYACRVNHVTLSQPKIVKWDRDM

As to blinatumomab, in data set [1], the serum half-life was 2.11 h. Besides, in data set [2], the complete remission rate is 32% and the “minimal residual disease (MRD) response” value is on record as 31%.
As to rituximab, the “RMAX (RU)” value with FcRn receptor turned out to be 96.4 RU. The median fluorescence intensity is on record as 58.28 with CD3 (0.32 nM); 56.55 in the data set with CD3 (1 nM); 55.37 with CD3 (3.16 nM); 60.83 with CD3 (10 nM); 58.71 with CD3 (31.6 nM); 55.49 in the data set with CD3 (100 nM). The median fluorescence intensity with CD3 (316 nM) was found to be 54.99; in the data set with CD3 (1000 nM) it was 66.36; in the data set on MOLT-4 cells (1 nM), 78.96; in the data set on MOLT-4 cells (10 nM), 75.92; in the data set with MOLT-4 cells (100 nM), 68.42; in the data set on MOLT-4 cells (1000 nM), 67.39. For the same substance, the “binding to the CD3 positive Jurkat E6.1 cell line” value with CD3 (Jurkat E6.1, result in words) is listed as “not”.
